Results as given in patent publication US20260327324 (published 2026).

T1: MSLN (UniProt Q13421)
T1 chain: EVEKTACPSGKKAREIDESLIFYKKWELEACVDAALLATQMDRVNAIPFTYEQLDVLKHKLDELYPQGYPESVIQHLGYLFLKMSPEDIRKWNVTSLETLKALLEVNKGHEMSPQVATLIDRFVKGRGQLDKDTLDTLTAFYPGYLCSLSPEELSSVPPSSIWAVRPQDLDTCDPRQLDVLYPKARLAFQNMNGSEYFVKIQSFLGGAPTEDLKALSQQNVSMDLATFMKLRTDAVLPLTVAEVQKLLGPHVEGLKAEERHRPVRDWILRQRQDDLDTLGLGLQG


biological target: PD-L1 (UniProt Q9NZQ7); experiment: SPR
Sequence (Q9NZQ7 19-238): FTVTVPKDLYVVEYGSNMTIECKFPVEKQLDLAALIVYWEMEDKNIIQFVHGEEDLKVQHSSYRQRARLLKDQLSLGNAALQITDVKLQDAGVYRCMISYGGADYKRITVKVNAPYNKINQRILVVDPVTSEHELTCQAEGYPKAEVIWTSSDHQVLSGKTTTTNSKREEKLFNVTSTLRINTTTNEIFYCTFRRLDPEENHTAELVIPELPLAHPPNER

| binding result | Binder |
| --- | --- |
| no binding | PRO3477 (37-20-B03-sc09.1 human consensus LCDR2) (antibody) DIQMTQSPASLSASVGDRVTITCQASQSIGTYLAWYQQKPGKPPKLLIYAASSLQSGVPSRFSGSGSGTDFTLTISSLQPEDFATYYCQSNFYSDSTTIGPNAFGTGTKVTVLGGGGGSGGGGSGGGGSGGGGSEVQLVESGGGLVQPGGSLRLSCAASGFSFNSDYWIYWVRQAPGKGLEWIASIYGGSSGNTQYASWAQGRFTISRDNSKNTVYLQMNSLRAEDTAVYFCARGYVDYGGATDLWGQGTLVTVSS |

biological target: HSA (human, UniProt P02768); experiment: SPR

| Kd | Binder |
| --- | --- |
| 0.174 nM | PRO4112 (19-04-A10-sc11) (antibody) AFQLTQSPSSLSASVGDRVTITCQASESINSRLAWYQQKPGKPPKLLIYDASDLTSGVPSRFSGRGSGTDFTLTISSLQPEDFATYYCQGYGGSSTTTFGCGTKVTVLGGGGGSGGGGSGGGGSGGGGSQQLVESGGGLVQPGGSLRLSCAASGFSLSSYAMNWVRQAPGKCLEWIGHINAGDIAYYATWAKGRFTISKDNSKNTVYLQMNNLRAEDSAVYFCARGAGGFSTGPFKLWGQGTLVKVSS |
| 0.0901 nM | PRO4113 (19-04-A10-sc12) (antibody) AFQLTQSPSSLSASVGDRVTITCQASESINSRLAWYQQKPGKPPKLLIYDASDLTSGVPSRFSGRGSGTDFTLTISSLQPEDFATYYCQGYGGSSTTTFGCGTKVTVLGGGGGSGGGGSGGGGSGGGGSQSVVESGGGLVQPGGSLRLSCAASGFSLSSYAMNWVRQAPGKCLEWIGHINAGDIAYYATWAKGRFTISKDNSKNTVYLQMNSLRAEDSAVYFCARGAGGFSTGPFKLWGQGTLVKVSS |
| 2.62 nM | PRO2155 (19-04-A10-sc02) (antibody) AFELTQSPSSLSASVGDRVTITCQASESINSRLAWYQQKPGQPPKLLIYDASDLTSGVPSRFSGSGSGTDFTLTISSLQPEDFATYYCQGYGGSSTTTFGGGTKLTVLGGGGGSGGGGSGGGGSGGGGSEVQLVESGGGLVQPGGSLRLSCAASGFSLSSYAMNWVRQAPGKGLEWIGHINAGDIAYYATWAKGRFTISRDNSKNTVYLQMNSLRAEDTAVYFCARGAGGFSTGPFKLWGQGTLVTVSS |

Biological target: T1, MSLN
Experiment: SPR

| Kd | Binder |
| --- | --- |
| 0.172 nM | PRO3732 (54-21-H03-sc01 A67G_S68G) (antibody) DIQMTQSPSSLSASVGDRVTITCQASESIYSSLAWYQQKPGKAPKLLIYLGGTLASGVPSRFSGSGSGTDFTLTISSLQPEDFATYYCQSTDYTTSTHRNSFGTGTKVTVLGGGGGSGGGGSGGGGSGGGGSEVQLVESGGGLVQPGGSLRLSCAASGFSFSTTYYMCWVRQAPGKGLEWIGCTNTASSVRTYYATWAKGRFTISRDNSKNTVYLQMNSLRAEDTAVYYCARDMGFADYALNLWGQGTLVTVSS |
| 0.151 nM | PRO1922 (54-21-H03-sc01) (antibody) DIQMTQSPSSLSASVGDRVTITCQASESIYSSLAWYQQKPGKAPKLLIYLASTLASGVPSRFSGSGSGTDFTLTISSLQPEDFATYYCQSTDYTTSTHRNSFGTGTKVTVLGGGGGSGGGGSGGGGSGGGGSEVQLVESGGGLVQPGGSLRLSCAASGFSFSTTYYMCWVRQAPGKGLEWIGCTNTASSVRTYYATWAKGRFTISRDNSKNTVYLQMNSLRAEDTAVYYCARDMGFADYALNLWGQGTLVTVSS |
| 1.58 nM | PRO3733 (54-32-A07-sc06 G51C_T141C A67G_S68G) (antibody) ALQMTQSPSSLSARVGDRVTIKCQASQSISNYLAWYQQKPGKPPKFLIYDGGDLASGVPSRFSGSGSGRDFTLTISSLQPEDFATYYCQQVYDSNNVENVFGCGTKVTVLGGGGGSGGGGSGGGGSGGGGSQSQLVESGGGLVQPGGSLRLSCAVSGFSLSSYAMGWVRQAPGKCLEYIGYISKIGTTYYASWAKGRFTISKDNSKNTVYLQMNSLRAEDTAVYFCARGSSSGGYLDDGFDPWGQGTLVTVSS |
| 0.561 nM | PRO2309 (54-32-A07-sc06 G51C_T141C) (antibody) ALQMTQSPSSLSARVGDRVTIKCQASQSISNYLAWYQQKPGKPPKFLIYDASDLASGVPSRFSGSGSGRDFTLTISSLQPEDFATYYCQQVYDSNNVENVFGCGTKVTVLGGGGGSGGGGSGGGGSGGGGSQSQLVESGGGLVQPGGSLRLSCAVSGFSLSSYAMGWVRQAPGKCLEYIGYISKIGTTYYASWAKGRFTISKDNSKNTVYLQMNSLRAEDTAVYFCARGSSSGGYLDDGFDPWGQGTLVTVSS |

biological target: ROR1 (UniProt Q01973); experiment: SPR
Sequence (Q01973 30-403): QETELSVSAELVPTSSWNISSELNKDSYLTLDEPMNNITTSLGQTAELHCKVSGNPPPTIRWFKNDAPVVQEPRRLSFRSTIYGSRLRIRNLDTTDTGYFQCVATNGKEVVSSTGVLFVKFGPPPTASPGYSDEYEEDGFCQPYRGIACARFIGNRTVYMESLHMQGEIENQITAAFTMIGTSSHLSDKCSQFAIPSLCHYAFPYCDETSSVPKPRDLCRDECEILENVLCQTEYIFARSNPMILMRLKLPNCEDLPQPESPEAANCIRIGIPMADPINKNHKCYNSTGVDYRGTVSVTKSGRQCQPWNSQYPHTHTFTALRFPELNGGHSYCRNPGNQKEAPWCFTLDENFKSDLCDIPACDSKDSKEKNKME

| Kd | Binder |
| --- | --- |
| 0.119 nM | PRO2060 (55-38-D07-sc02) (antibody) VQMTQSPSSLSASVGDRVTITCRASENIYSGLAWYQQKPGKPPKLLIYRASTLASGVSSRFSGSGSGTDFTLTISSLQPEDFATYYCQGGYYSSSSTYIAFGTGTKVTVLGGGGGSGGGGSGGGGSGGGGSQSQVVESGGGLVQPGGSLRLSCAVSGFDLSSYAVSWVRQAPGKGLEWIGIIYPRANTYYASWAKGRFTISKDNSKNTVYLQMNSLRAEDTAVYFCARDRYDSGAYLYTTYFNLWGQGTLVTVSS |
| 0.336 nM | PRO3735 (55-38-D07-sc02 A67G_S68G) (antibody) DVQMTQSPSSLSASVGDRVTITCRASENIYSGLAWYQQKPGKPPKLLIYRGGTLASGVSSRFSGSGSGTDFTLTISSLQPEDFATYYCQGGYYSSSSTYIAFGTGTKVTVLGGGGGSGGGGSGGGGSGGGGSQSQVVESGGGLVQPGGSLRLSCAVSGFDLSSYAVSWVRQAPGKGLEWIGIIYPRANTYYASWAKGRFTISKDNSKNTVYLQMNSLRAEDTAVYFCARDRYDSGAYLYTTYFNLWGQGTLVTVSS |
| 0.212 nM | PRO4139 (55-38-D07-sc09 A67G_S68G) (antibody) DVQMTQSPSSLSASVGDRVTITCRASENIYSGLAWYQQKPGKPPKLLIYRGGTLASGVSSRFSGSGSGTDFTLTISSLQPEDFATYYCQGGYYSSSSTYIAFGTGTKVTVLGGGGGSGGGGSGGGGSGGGGSQSVVESGGGLVQPGGSLRLSCAVSGFDLSSYAVSWVRQAPGKGLEWIGIIYPRANTYYASWAKGRFTISKDNSKNTVYLQMNSLRAEDSAVYFCARDRYDSGAYLYTTYFNLWGQGTLVKVSS |
| 0.122 nM | PRO4135 (55-38-D07-sc09) (antibody) DVQMTQSPSSLSASVGDRVTITCRASENIYSGLAWYQQKPGKPPKLLIYRASTLASGVSSRFSGSGSGTDFTLTISSLQPEDFATYYCQGGYYSSSSTYIAFGTGTKVTVLGGGGGSGGGGSGGGGSGGGGSQSVVESGGGLVQPGGSLRLSCAVSGFDLSSYAVSWVRQAPGKGLEWIGIIYPRANTYYASWAKGRFTISKDNSKNTVYLQMNSLRAEDSAVYFCARDRYDSGAYLYTTYFNLWGQGTLVKVSS |
| 0.631 nM | PRO4143 (55-38-D07-sc09 G51C A67G_S68G_T141C) (antibody) DVQMTQSPSSLSASVGDRVTITCRASENIYSGLAWYQQKPGKPPKLLIYRGGTLASGVSSRFSGSGSGTDFTLTISSLQPEDFATYYCQGGYYSSSSTYIAFGCGTKVTVLGGGGGSGGGGSGGGGSGGGGSQSVVESGGGLVQPGGSLRLSCAVSGFDLSSYAVSWVRQAPGKCLEWIGIIYPRANTYYASWAKGRFTISKDNSKNTVYLQMNSLRAEDSAVYFCARDRYDSGAYLYTTYFNLWGQGTLVKVSS |
| 0.108 nM | PRO2062 (55-39-G02-sc02) (antibody) AQQLTQSPSSLSASVGDRVTITCQASQNVWNNNYLSWFQQKPGKPPKLLIVTASTLASGVSSRFSGSGSGTDFTLTISSLQPEDFATYYCAGGFSGEIRAFGTGTKVTVLGGGGGSGGGGSGGGGSGGGGSQSQLVESGGGLVQPGGSLRLSCAVSGLSLSRNAMSWVRQAPGKGLEWIGIILTSGSTYYASWAKGRFTISKDNSKNTVYLQMNSLRAEDTAVYFCVRGIASSSLKSFWGQGTLVTVSS |
| 0.12 nM | PRO3734 (55-39-G02-sc02 A67G_S68G) (antibody) AQQLTQSPSSLSASVGDRVTITCQASQNVWNNNYLSWFQQKPGKPPKLLIVTGGTLASGVSSRFSGSGSGTDFTLTISSLQPEDFATYYCAGGFSGEIRAFGTGTKVTVLGGGGGSGGGGSGGGGSGGGGSQSQLVESGGGLVQPGGSLRLSCAVSGLSLSRNAMSWVRQAPGKGLEWIGIILTSGSTYYASWAKGRFTISKDNSKNTVYLQMNSLRAEDTAVYFCVRGIASSSLKSFWGQGTLVTVSS |

biological target: PD-L1 (UniProt Q9NZQ7); experiment: SPR; remark: another data set of the same source

| Kd | Binder |
| --- | --- |
| 0.0109 nM | PRO1347 (37-20-B03 sc09-IF) (antibody) IQMTQSPASLSASVGDRVTITCQASQSIGTYLAWYQQKPGKPPKLLIYRAFILASGVPSRFSGSGSGTDFTLTISSLQPEDFATYYCQSNFYSDSTTIGPNAFGTGTKVTVLGGGGGSGGGGSGGGGSGGGGSEVQLVESGGGLVQPGGSLRLSCAASGFSFNSDYWIYWVRQAPGKGLEWIACIYGGSSGNTQYASWAQGRFTISRDNSKNTVYLQMNSLRAEDTAVYFCARGYVDYGGATDLWGQGTLVTVSS |
| 0.196 nM | PRO4125 (37-20-B03 sc17 A67G_F68G) (antibody) DIQMTQSPSSLSASVGDRVTITCQASQSIGTYLAWYQQKPGKPPKLLIYRGGILASGVPSRFSGSGSGTDFTLTISSLQPEDFATYYCQSNFYSDSTTIGPNAFGTGTKVTVLGGGGGSGGGGSGGGGSGGGGSQSLVESGGGLVQPGGSLRLSCAASGFSFNSDYWISWVRQAPGKGLEWIASIYGGSSGNTQYASWAQGRFTISKDNSKNTVYLQMNSLRAEDTAVYFCARGYVDYGGATDLWGQGTLVTVSS |
| 491 nM | PRO1434 (33-03-G02 Q108A_G109A) (antibody) DIQMTQSPSSLSASVGDRVTITCQASQSINDYLAWYQQKPGKAPKLLIYKASTLASGVPSRFSGSGSGTDFTLTISSLQPEDFATYYCQAAYIITDIDNVFGTGTKVTVLGGGGGSGGGGSGGGGSGGGGSQVQLQESGPGLVKPSETLSLTCKVSGFSFSSGYDMCWIRQPPGKGLEWIGCVVAGSVDITYYASWAKGRVTISVDSSKNQFSLKLSSVTAADTAVYYCARKDAYSDAFNLWGQGTLVTVSS |
| 491 nM | PRO3725 (33-03-G02 Q108A_G109A A67G_F68G) (antibody) DIQMTQSPSSLSASVGDRVTITCQASQSINDYLAWYQQKPGKAPKLLIYKGGTLASGVPSRFSGSGSGTDFTLTISSLQPEDFATYYCQAAYIITDIDNVFGTGTKVTVLGGGGGSGGGGSGGGGSGGGGSQVQLQESGPGLVKPSETLSLTCKVSGFSFSSGYDMCWIRQPPGKGLEWIGCVVAGSVDITYYASWAKGRVTISVDSSKNQFSLKLSSVTAADTAVYYCARKDAYSDAFNLWGQGTLVTVSS |
